Legend:
[1] = target: human FGFR4-FGFR1 chimeric construct (hFGFR4/R1) on BaF3 cells (human) (UniProt P11362); experiment: cell-based or functional assay
[2] = target: T1, human FGFR4 (soluble, Part B: SPR and FGFR4 ELISA) (human) (UniProt P22455); experiment: SPR (BIAcore-2000), antibody immobilized, human FGFR4 injected
T1 sequence: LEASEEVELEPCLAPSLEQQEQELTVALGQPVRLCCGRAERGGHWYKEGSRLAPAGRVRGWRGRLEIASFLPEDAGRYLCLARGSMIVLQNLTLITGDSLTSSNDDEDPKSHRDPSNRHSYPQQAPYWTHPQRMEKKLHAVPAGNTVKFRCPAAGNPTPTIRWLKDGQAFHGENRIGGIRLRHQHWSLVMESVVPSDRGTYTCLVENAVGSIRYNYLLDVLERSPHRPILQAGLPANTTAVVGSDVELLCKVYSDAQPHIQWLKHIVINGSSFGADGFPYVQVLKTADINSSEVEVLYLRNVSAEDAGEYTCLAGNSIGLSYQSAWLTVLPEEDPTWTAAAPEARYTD

[3] = target: T2, FGFR4 (solid phase receptor-binding assay) (Homo sapiens (Human)) (UniProt P22455); experiment: solid phase receptor-binding assay; LD1 titrated, inhibition of FGF1 binding to FGFR4
T2 sequence: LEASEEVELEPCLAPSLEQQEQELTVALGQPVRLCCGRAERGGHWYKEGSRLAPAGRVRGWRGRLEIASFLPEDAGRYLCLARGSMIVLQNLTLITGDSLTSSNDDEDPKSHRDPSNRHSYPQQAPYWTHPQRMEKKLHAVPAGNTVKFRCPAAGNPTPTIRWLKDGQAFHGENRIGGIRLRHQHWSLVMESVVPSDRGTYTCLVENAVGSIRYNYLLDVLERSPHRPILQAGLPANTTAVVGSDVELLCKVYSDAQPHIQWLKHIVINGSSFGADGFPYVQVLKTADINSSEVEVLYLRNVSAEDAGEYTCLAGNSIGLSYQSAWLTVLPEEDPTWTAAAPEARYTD

[4] = target: T2, FGFR4 (solid phase receptor-binding assay) (Homo sapiens (Human)); experiment: solid phase receptor-binding assay; LD1 titrated, inhibition of FGF19 binding to FGFR4

B1: chimeric LD1 (chLD1) (antibody, from a related filing, human IgG1, V domains shown)
VH: EVQLQQPGAVLVRPGTSVKLSCKASGYTFTNHWMNWVKQRPGQGLEWIGMIHPSDSETTLDQKFKDKATLTVDKSSSTAYMQLNRPTSEDSAVYYCTRGDISLFDYWGQGTTVTVSS
VL: DIQMTQTTSSLSASLGDRVTITCRTSQDISNFLNWYQQKPDGTFKILISYTSRLHSGVPSRFSGSGSGTDYSLTISTLEQEDFATYFCQQGNALPYTFGGGTKLEIE
Question: What does the source list for B1?
Answer: inhibition of FGF1-stimulated proliferation of BaF3/FGFR4/R1 cells (5 nM FGF1), IC50 [1]: 17.4 nM; Kd [2]: 0.45 nM; koff [2]: 0.000173 s⁻¹; IC50 [3]: 0.093 nM; IC50 [4]: 0.102 nM

Source: patent US20160237157A1
